# Data taken from article PMC11838356 (bioRxiv, 2025).
# B1: ArnC from Salmonella enterica (ArnCSe) (enzyme, UniProt O52324 1-327, looked up)
# chain: MFDAAPIKKVSVVIPVYNEQESLPELIRRTTTACESLGKAWEILLIDDGSSDSSAELMVKASQEADSHIISILLNRNYGQHAAIMAGFSHVSGDLIITLDADLQNPPEEIPRLVAKADEGFDVVGTVRQNRQDSLFRKSASKIINLLIQRTTGKAMGDYGCMLRAYRRPIIDTMLRCHERSTFIPILANIFARRATEIPVHHAEREFGDSKYSFMRLINLMYDLVTCLTTTPLRLLSLLGSVIAIGGFSLSVLLIVLRLALGPQWAAEGVFMLFAVLFTFIGAQFIGMGLLGEYIGRIYNDVRARPRYFVQQVIYPESTPFTEESHQ
# Biological target: the molecule itself
# Assay: cryo-EM structure
protein,measurement,value
B1,stoichiometry N,4
